The data set concerns the target BcSpd1 (Botrytis cinerea, UniProt A0A384JL35 1-465). Kind of data set: EMSA; excess unlabeled probe blocked the shift; LightShift Chemiluminescent EMSA kit procedure (Thermo Scientific); buffer, salt, pH and temperature not given. Conditions: protein: recombinant; tags: His (pET28a); chain copies: 2; blunt. In general terms: Mobility shift assays separate free from complexed probe on a gel.

B1: BcQdo promoter fragment 3 (E-BcQdo-Pr3) (dsDNA)
DNA 1: TACCGAACGCCCACAAGCCTTGAATATAGATGTACCGGTACTGCTGCCGA
DNA 2: TCGGCAGCAGTACCGGTACATCTATATTCAAGGCTTGTGGGCGTTCGGTA
With B1, the binding result is listed as “binds”.

Source of the values: article PMC9280406, “The Necrotroph Botrytis cinerea BcSpd1 Plays a Key Role in Modulating Both Fungal Pathogenic Factors and Plant Disease Development”.
